Measured values taken from PMC7910490, “The biosynthetic pathway of potato solanidanes diverged from that of spirosolanes due to evolution of a dioxygenase” (Nature Communications, 2021).

How the values were obtained:
[1] = substrate: C[C@H]1CC[C@]2(NC1)O[C@H]1C[C@H]3[C@@H]4CC=C5C[C@@H](O)CC[C@]5(C)[C@H]4CC[C@]3(C)[C@H]1[C@@H]2C; assay: purified protein, by the assay type; parameters: LC-MS of product formation by purified recombinant enzyme; Michaelis-Menten nonlinear regression (ANEMONA); conditions: pH 7.2
Experimental: (§1) An in vitro enzyme activity assay was performed using 100 μl of reaction mixture containing 100 mM Bis–Tris–HCl (pH 7.2), 5 mM 2-oxoglutarate, 10 mM sodium ascorbate, 0.2 mM FeSO4, 25 μM substrate, and 1 μg purified recombinant proteins as the enzyme. The reaction was initiated by the addition of the enzyme and was carried out at 30 °C for 30 min. The reaction was then stopped by incubation for 2 min at 90 °C. After centrifugation, 20 μl of supernatant was diluted with 180 μl methanol and filtered through 0.2-μm nylon membrane filters (Acrodisc, Waters). An aliquot (2 μl) was analyzed using LC–MS, as described in “Feeding experiments” above. We determined the kinetic parameters of the recombinant DPS and St7070 in triplicate assays. The assays were conducted as described above, with minor modifications. Briefly, 0.1 μg purified DPS protein or 0.02 μg purified St7070 were used. […] A 20 μl sample of assay mixture was diluted with 180 μl methanol and filtered through 0.2-μm nylon membrane filters (Acrodisc, Waters). An aliquot (2 μl) was analyzed using LC–MS, as described above. The kinetic parameters were determined by nonlinear regression, using the ANEMONA program. Supplementary Fig. 21| Enzyme kinetics of purified recombinant DPS and St7070 with a-solamarine and (22S,25S)-spirosol-5-en-3b-ol. […]

[2] = substrate: C[C@H]1CC[C@]2(NC1)O[C@H]1C[C@H]3[C@@H]4CC=C5C[C@@H](O[C@@H]6O[C@H](CO)[C@H](O)[C@H](O[C@@H]7O[C@H](CO)[C@@H](O)[C@H](O)[C@H]7O)[C@H]6O[C@@H]6O[C@@H](C)[C@H](O)[C@@H](O)[C@H]6O)CC[C@]5(C)[C@H]4CC[C@]3(C)[C@H]1[C@@H]2C; assay: purified protein, by the assay type; parameters: LC-MS of product formation by purified recombinant enzyme; Michaelis-Menten nonlinear regression (ANEMONA); conditions: pH 7.2
Experimental: as §1

B1: St7070 (Solanum tuberosum) (protein)
chain: MASTKVTIPTIDFFNSELKPNTPQWELTKVQVFEALQEFGCFEAIYNKVPNEIREGMFDTLKEVFDFPLSKLIEYREKPFHIYDGQIPSVPLFGSVYSADLVLPNSVETFANTFWSHGNPNFSNVAKSYFKQLMELNGMVEKMVLESLGLKNYIDEFLNSNVYMSRFTNYKVIKGENENKSGLPSHTDSSYLTIIKQNQNGLQVLYKNGEWIELNHTSPNSYIVLSADALMAWTNDRLTSAQHRVVTTGDKDRFSVQLFSLVNPDYTLKVPKELVDEEHPLMYKPFKMPEYNKYLMLGAKNGLGVKNYCGL
**Q.** B1 was tested. Which Km [1] did it give?
**A.** Its Km is 19.6 ± 0.056 µM.

**Q.** What about the Km [2] of the same protein?
**A.** Its Km is 1.7 ± 0.24 µM.
